Measurements reported in PMC10364083, “Dimerization of European Robin Cryptochrome 4a” (The Journal of Physical Chemistry. B, 2023).
Several values for one entry are separate records, joined by “and”; a condition that tells them apart may be missing. Equal values may be shown once.

How the values were obtained:
[1] = target: European robin cryptochrome 4a (Erithacus rubecula Cry4a), wild type, with N-terminal 10x His-tag (European robin (Erithacus rubecula)); assay: native MS; 200 mM ammonium acetate, pH 8; nanoflow electrospray, Q Exactive, positive ion mode; micromolar protein concentrations; His-tagged proteins; WT sample of Figure 3A shipped with 10 mM BME
[2] = target: European robin cryptochrome 4a (Erithacus rubecula Cry4a), wild type, with N-terminal 10x His-tag (European robin (Erithacus rubecula)); assay: as above; remark: listed apart in the source
[3] = target: European robin cryptochrome 4a (Erithacus rubecula Cry4a), wild type, with N-terminal 10x His-tag (European robin (Erithacus rubecula)); assay: mass photometry; 44 nM ErCry4a WT in 200 mM ammonium acetate, pH 8.3; sample shipped with 2 mM DTT; ONE-MP instrument
[4] = target: ErCry4a C412A mutant (European robin (Erithacus rubecula)); assay: native MS; 200 mM ammonium acetate, pH 8; nanoflow electrospray, Q Exactive, positive ion mode; micromolar protein concentrations; His-tagged proteins; WT sample of Figure 3A shipped with 10 mM BME
ErCry4a = target: T1, ErCry4a (Erithacus rubecula, UniProt A0A2I4SZI9); assay: native mass spectrometry of holoprotein; assay type: binding; settings: co-purified non-covalently bound FAD; 200 mM ammonium acetate, pH 8; monomer and dimer
T1 construct: full-length wild type (CTT residues 498-527), N-terminal 10x His-tag kept for native MS, expressed in E. coli; monomer with minor disulfide-linked dimer
T1 sequence (A0A2I4SZI9 1-527): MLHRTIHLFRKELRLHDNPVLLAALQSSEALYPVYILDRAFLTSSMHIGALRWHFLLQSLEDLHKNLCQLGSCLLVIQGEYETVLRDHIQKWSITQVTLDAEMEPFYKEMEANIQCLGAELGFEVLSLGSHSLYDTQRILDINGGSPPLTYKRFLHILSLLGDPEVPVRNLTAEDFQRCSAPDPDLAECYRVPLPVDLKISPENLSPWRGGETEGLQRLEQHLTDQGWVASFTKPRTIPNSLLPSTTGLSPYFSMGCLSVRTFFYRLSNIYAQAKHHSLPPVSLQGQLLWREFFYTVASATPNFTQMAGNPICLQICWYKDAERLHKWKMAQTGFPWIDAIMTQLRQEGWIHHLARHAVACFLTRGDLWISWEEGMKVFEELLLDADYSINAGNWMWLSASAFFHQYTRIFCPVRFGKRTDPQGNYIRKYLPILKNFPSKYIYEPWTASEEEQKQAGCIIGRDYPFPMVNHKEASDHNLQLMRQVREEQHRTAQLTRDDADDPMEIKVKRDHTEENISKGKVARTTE

[5] = target: ErCry4a C412A + C317A mutant (European robin (Erithacus rubecula)); assay: native MS; 200 mM ammonium acetate, pH 8; nanoflow electrospray, Q Exactive, positive ion mode; micromolar protein concentrations; His-tagged proteins; WT sample of Figure 3A shipped with 10 mM BME
[6] = target: ErCry4a C317A mutant (European robin (Erithacus rubecula)); assay: as above

**Q.** How did the stoichiometry N [1] turn out when “European robin cryptochrome 4a (Erithacus rubecula Cry4a), wild type, with N-terminal 10x His-tag (natural protein)” was run?
**A.** Its stoichiometry N is 3.

**Q.** And the stoichiometry N [2]?
**A.** Its stoichiometry N is 2.

**Q.** And the percent of counts in the dimer peak [3]?
**A.** The percent of counts in the dimer peak was 11%.

**Q.** And the stoichiometry N [3]?
**A.** The stoichiometry N was 2.

**Q.** For ErCry4a C412A mutant (natural protein), which stoichiometry N [4] is on record?
**A.** The stoichiometry N was 2 and 3.

**Q.** Which “native mass spectrometry of holoprotein” value (ErCry4a) does the source give for Cc1cc2nc3c(=O)[nH]c(=O)nc-3n(C[C@H](O)[C@H](O)[C@H](O)COP(=O)(O)OP(=O)(O)OC[C@H]3O[C@@H](n4cnc5c(N)ncnc54)[C@H](O)[C@@H]3O)c2cc1C [FAD] here?
**A.** The value was “the ErCry4a dimers bind FAD and have native MS charge-state distributions”.

**Q.** “ErCry4a C412A + C317A mutant (natural protein)” was tested. Which stoichiometry N [5] did it give?
**A.** The stoichiometry N was 2 and 3.

**Q.** Which stoichiometry N [6] does the source give for ErCry4a C317A mutant (natural protein) here?
**A.** The stoichiometry N was 2 and 3.
